In patent US20260337282 (published 2026):
Where two headings read alike, the source gives them in different places.

T1: mouse CCR8 (mouse)
T1 chain: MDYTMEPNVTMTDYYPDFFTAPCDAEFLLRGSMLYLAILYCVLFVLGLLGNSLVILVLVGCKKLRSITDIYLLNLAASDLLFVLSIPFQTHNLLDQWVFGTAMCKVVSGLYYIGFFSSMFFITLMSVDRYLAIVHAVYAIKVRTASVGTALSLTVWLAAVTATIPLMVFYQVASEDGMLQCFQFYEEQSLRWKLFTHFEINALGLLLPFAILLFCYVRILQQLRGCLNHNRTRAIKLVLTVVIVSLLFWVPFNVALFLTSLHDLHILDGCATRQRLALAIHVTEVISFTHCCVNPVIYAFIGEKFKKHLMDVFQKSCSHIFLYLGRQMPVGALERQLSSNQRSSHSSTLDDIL


How the values were obtained:
Assay in all cases: FACS
mouse CCR8 [1] = target: T1, mouse CCR8
human CCR8 [2] = target: human CCR8 (human)
human CCR8 [3] = target: human CCR8 (human); remark: listed apart in the source
mouse CCR8 [4] = target: T1, mouse CCR8
mouse CCR8 [5] = target: T1, mouse CCR8
human CCR8 [6] = target: human CCR8 (human); remark: listed apart in the source

Sequence of human CCR8 (human) (chain, as listed by the source): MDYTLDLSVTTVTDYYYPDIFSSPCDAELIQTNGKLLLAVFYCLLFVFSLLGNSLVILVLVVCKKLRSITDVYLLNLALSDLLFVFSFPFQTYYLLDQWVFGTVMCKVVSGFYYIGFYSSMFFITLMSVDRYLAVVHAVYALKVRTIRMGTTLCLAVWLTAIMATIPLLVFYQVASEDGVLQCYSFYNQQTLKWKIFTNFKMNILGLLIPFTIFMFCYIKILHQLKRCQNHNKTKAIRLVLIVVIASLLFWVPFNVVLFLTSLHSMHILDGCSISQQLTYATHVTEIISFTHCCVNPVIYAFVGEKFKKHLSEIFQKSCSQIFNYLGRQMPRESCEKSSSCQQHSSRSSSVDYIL

EC50 (mouse CCR8 [1])	EC50 (human CCR8 [2])	EC50 (human CCR8 [3])	EC50 (mouse CCR8 [4])	Binder	further results
0.053 µg/mL	0.015 µg/mL	–	–	11F8-SG-11F8-SG (antibody, V domains shown) VH: QVQLVESGGGVVQPGRSLRLSCAASGFTFSTYVMHWVRQAPGKGLEWVAVISYSGNNKYYADSVKGRFIISRDNSKNTLFLQMNSLRGEDTAVYYCARGRSYVNYYGLDVWGQGTTVTVSS VL: DIVMTQTPLSLSVTPGQPASISCKSSQSLLYSSGKTYLYWYLQKPGQPPHLLIYEVSNRFSGVPKRFSGSGSGTDFTLKISRVEAEDVGVYYCMQSVKIPLTFGGGTKVEIK	–
–	–	0.174 µg/mL	0.105 µg/mL	11F5-N3S-Y6N-11F5 (antibody, V domains shown) VH: EVQLVESGGGVVQPGRSLRLSCAASGFTFSSYVVHWVRQAPGKGLEWVAVISYDGDNKFYADSVKGRFTISRDNSKNTLYLQMNSLRTEDTAVYYCARGRSYYNYYGLDVWGQGTTVTVSS VL: DIVMTQTPLSLSVTPGQPASISCKSSQSLLYSDGKTYLYWYLQKAGQPPQLLIYEVSNRFSGVPDRFSGSGSGTDFTLKISRVEAEDVGVFYCMQSLKVPPTFGQGTKVDIK	–
–	–	–	–	11B12-11F8-SG (antibody, V domains shown) VH: QVQLVESGGGVVQPGRSLRLSCAASGFSFSSYVMHWVRQAPGKGLEWVAVISYDGSDKYYADSVKGRFTISRDNSKNTLFLQMNSLRPEDTAVYYCARGRGYRYGQSYYYGMDVWGQGTTVTVSS VL: DIVMTQTPLSLSVTPGQPASISCKSSQSLLYSSGKTYLYWYLQKPGQPPHLLIYEVSNRFSGVPKRFSGSGSGTDFTLKISRVEAEDVGVYYCMQSVKIPLTFGGGTKVEIK	EC50 (mouse CCR8 [5]): 0.12 µg/mL; EC50 (human CCR8 [6]): 0.165 µg/mL
0.069 µg/mL	0.033 µg/mL	–	–	11F5-SG-11F5-SG (antibody, V domains shown) VH: EVQLVESGGGVVQPGRSLRLSCAASGFTFSSYVVHWVRQAPGKGLEWVAVISYSGDNKFYADSVKGRFTISRDNSKNTLYLQMNSLRTEDTAVYYCARGRNYYYYYGLDVWGQGTTVTVSS VL: DIVMTQTPLSLSVTPGQPASISCKSSQSLLYSSGKTYLYWYLQKAGQPPQLLIYEVSNRFSGVPDRFSGSGSGTDFTLKISRVEAEDVGVFYCMQSLKVPPTFGQGTKVDIK	–
–	–	0.592 µg/mL	0.546 µg/mL	11F5-Y5V-Y6N-11F5 (antibody, V domains shown) VH: EVQLVESGGGVVQPGRSLRLSCAASGFTFSSYVVHWVRQAPGKGLEWVAVISYDGDNKFYADSVKGRFTISRDNSKNTLYLQMNSLRTEDTAVYYCARGRNYVNYYGLDVWGQGTTVTVSS VL: DIVMTQTPLSLSVTPGQPASISCKSSQSLLYSDGKTYLYWYLQKAGQPPQLLIYEVSNRFSGVPDRFSGSGSGTDFTLKISRVEAEDVGVFYCMQSLKVPPTFGQGTKVDIK	–
–	–	0.228 µg/mL	0.129 µg/mL	11F5-N3S-Y5V-11F5 (antibody, V domains shown) VH: EVQLVESGGGVVQPGRSLRLSCAASGFTFSSYVVHWVRQAPGKGLEWVAVISYDGDNKFYADSVKGRFTISRDNSKNTLYLQMNSLRTEDTAVYYCARGRSYVYYYGLDVWGQGTTVTVSS VL: DIVMTQTPLSLSVTPGQPASISCKSSQSLLYSDGKTYLYWYLQKAGQPPQLLIYEVSNRFSGVPDRFSGSGSGTDFTLKISRVEAEDVGVFYCMQSLKVPPTFGQGTKVDIK	–
–	–	0.168 µg/mL	0.119 µg/mL	11F5-N3S-11F5 (antibody, V domains shown) VH: EVQLVESGGGVVQPGRSLRLSCAASGFTFSSYVVHWVRQAPGKGLEWVAVISYDGDNKFYADSVKGRFTISRDNSKNTLYLQMNSLRTEDTAVYYCARGRSYYYYYGLDVWGQGTTVTVSS VL: DIVMTQTPLSLSVTPGQPASISCKSSQSLLYSDGKTYLYWYLQKAGQPPQLLIYEVSNRFSGVPDRFSGSGSGTDFTLKISRVEAEDVGVFYCMQSLKVPPTFGQGTKVDIK	–
0.084 µg/mL	0.144 µg/mL	–	–	11B12-DNA-11B12 (antibody, V domains shown) VH: QVQLVESGGGVVQPGRSLRLSCAASGFSFSSYVMHWVRQAPGKGLEWVAVISYDGSDKYYADSVKGRFTISRDNAKNTLFLQMNSLRPEDTAVYYCARGRGYRYGQSYYYGMDVWGQGTTVTVSS VL: DIVMTQTPLSLSVTPGQPASISCKSSQSLLYSDGKTYLYWYLQKPGQPPQILIFEVSNRFSGVPDRFSGSGSGTDFTLKISRVEAEDVGVYYCMQSIKLPLTFGGGTKVEIK	–
0.1 µg/mL	0.152 µg/mL	–	–	11B12-11F8 (antibody, V domains shown) VH: QVQLVESGGGVVQPGRSLRLSCAASGFSFSSYVMHWVRQAPGKGLEWVAVISYDGSDKYYADSVKGRFTISRDNSKNTLFLQMNSLRPEDTAVYYCARGRGYRYGQSYYYGMDVWGQGTTVTVSS VL: DIVMTQTPLSLSVTPGQPASISCKSSQSLLYSDGKTYLYWYLQKPGQPPHLLIYEVSNRFSGVPKRFSGSGSGTDFTLKISRVEAEDVGVYYCMQSVKIPLTFGGGTKVEIK	–
–	–	0.714 µg/mL	0.762 µg/mL	11F5-Y5V-11F5 (antibody, V domains shown) VH: EVQLVESGGGVVQPGRSLRLSCAASGFTFSSYVVHWVRQAPGKGLEWVAVISYDGDNKFYADSVKGRFTISRDNSKNTLYLQMNSLRTEDTAVYYCARGRNYVYYYGLDVWGQGTTVTVSS VL: DIVMTQTPLSLSVTPGQPASISCKSSQSLLYSDGKTYLYWYLQKAGQPPQLLIYEVSNRFSGVPDRFSGSGSGTDFTLKISRVEAEDVGVFYCMQSLKVPPTFGQGTKVDIK	–
–	–	–	–	11F5-11B12 (antibody, V domains shown) VH: EVQLVESGGGVVQPGRSLRLSCAASGFTFSSYVVHWVRQAPGKGLEWVAVISYDGDNKFYADSVKGRFTISRDNSKNTLYLQMNSLRTEDTAVYYCARGRNYYYYYGLDVWGQGTTVTVSS VL: DIVMTQTPLSLSVTPGQPASISCKSSQSLLYSDGKTYLYWYLQKPGQPPQILIFEVSNRFSGVPDRFSGSGSGTDFTLKISRVEAEDVGVYYCMQSIKLPLTFGGGTKVEIK	EC50 (mouse CCR8 [5]): 0.163 µg/mL; EC50 (human CCR8 [6]): 0.132 µg/mL
–	–	–	–	11B12-SG-11F8-SG (antibody, V domains shown) VH: QVQLVESGGGVVQPGRSLRLSCAASGFSFSSYVMHWVRQAPGKGLEWVAVISYSGSDKYYADSVKGRFTISRDNSKNTLFLQMNSLRPEDTAVYYCARGRGYRYGQSYYYGMDVWGQGTTVTVSS VL: DIVMTQTPLSLSVTPGQPASISCKSSQSLLYSSGKTYLYWYLQKPGQPPHLLIYEVSNRFSGVPKRFSGSGSGTDFTLKISRVEAEDVGVYYCMQSVKIPLTFGGGTKVEIK	EC50 (mouse CCR8 [5]): 0.099 µg/mL; EC50 (human CCR8 [6]): 0.009 µg/mL
–	–	0.21 µg/mL	0.141 µg/mL	11F5-N3S-Y5V-Y6N-11F5 (antibody, V domains shown) VH: EVQLVESGGGVVQPGRSLRLSCAASGFTFSSYVVHWVRQAPGKGLEWVAVISYDGDNKFYADSVKGRFTISRDNSKNTLYLQMNSLRTEDTAVYYCARGRSYVNYYGLDVWGQGTTVTVSS VL: DIVMTQTPLSLSVTPGQPASISCKSSQSLLYSDGKTYLYWYLQKAGQPPQLLIYEVSNRFSGVPDRFSGSGSGTDFTLKISRVEAEDVGVFYCMQSLKVPPTFGQGTKVDIK	–
0.055 µg/mL	0.051 µg/mL	–	–	11B12-SG-11F8 (antibody, V domains shown) VH: QVQLVESGGGVVQPGRSLRLSCAASGFSFSSYVMHWVRQAPGKGLEWVAVISYSGSDKYYADSVKGRFTISRDNSKNTLFLQMNSLRPEDTAVYYCARGRGYRYGQSYYYGMDVWGQGTTVTVSS VL: DIVMTQTPLSLSVTPGQPASISCKSSQSLLYSDGKTYLYWYLQKPGQPPHLLIYEVSNRFSGVPKRFSGSGSGTDFTLKISRVEAEDVGVYYCMQSVKIPLTFGGGTKVEIK	–
–	–	0.254 µg/mL	0.198 µg/mL	11F5-Y6N-11F5 (antibody, V domains shown) VH: EVQLVESGGGVVQPGRSLRLSCAASGFTFSSYVVHWVRQAPGKGLEWVAVISYDGDNKFYADSVKGRFTISRDNSKNTLYLQMNSLRTEDTAVYYCARGRNYYNYYGLDVWGQGTTVTVSS VL: DIVMTQTPLSLSVTPGQPASISCKSSQSLLYSDGKTYLYWYLQKAGQPPQLLIYEVSNRFSGVPDRFSGSGSGTDFTLKISRVEAEDVGVFYCMQSLKVPPTFGQGTKVDIK	–
